# Reference: the nanobody polyreactivity screen of Harvey et al. (2022)
# Test: yeast display, Sf9 membrane polyspecificity reagent, FACS + sequencing; frameworks hold sequencing errors
# Procedure, shortened: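 Genes from sorted yeast were amplified by colony PCR, read by MiSeq 2 × 250 sequencing and filtered on CDR length. These cells carried a synthetic nanobody library in Saccharomyces cerevisiae BJ5465 and were sorted by FACS into low and high (top ~1%) gates on anti-HA and streptavidin fluorescence. Polyreactivity is labelled according to the gate of origin.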
row,Sequence,polyreactivity (PSR sort gate)
1,QVQLVESGGGLVQAGGSLRLSCAASGSIFSYYAMGWYRQAPGKERELVAAISYSGSDTYYADSVKGRFTISRDNAKNTVYLQMNSLKPEDTAVYYCAAEDPSYSYDYWGQGTQVTVSS,low polyreactivity
2,QVQLVESGGGLVQAGGSLRLSCAASGFIFPWYAMGWYRQAPGKERELVAAISESGGGTYYADSVKGRFTISRDYAKNTVYLQMNSLKPEDTAVYYCNKAPRYPYGGYDYWGQGTQVTVSS,low polyreactivity
3,QVQLVESGGGLVQAGGSLRLSGAASGRIFVRNSMGWYRQAPGKERELVAAISSNGGSTRYADSVKGRFTISRDNAKNTVYLQMNSQKPEDTAVYYCNAYYSHSPRYLKYDYWGQGTQVTVSS,high polyreactivity
4,QVQLVESGGGLVQAGGSLRLSCAASGSIFEIYAMGWYRQAPGKERELVASITWSGGSTYYADSVKGRFTISRDNAKNTVYLQMNSLKPEDTAVYYCATDKLYGRTVRMDYWGQGTQVTVSS,low polyreactivity
5,QVQLVESGGGLVQAGGSLRLSCAASGSTFLYNTMGWYRPAPGKERELVAAITSAGSTNYADSVKGRFTISRDNAKNTVYLQMNSLKPEDTAVYYCAAVGPTSGARYTYDYWGQGTQVTVSS,low polyreactivity
6,QVQLVESGGGLVQAGGSLRLSCAASGITFRAYVMGWYRQAPGKERELVAAINRRGGSTYYADSVKGRFTISRDNEKNTVYLQMNSLKPEDTAVYYCGNGDFDYWGQGTQVTVSS,high polyreactivity
7,QVQLVESGGGLVQAGGSLRLSCAASGIIFYYYVMGWDRQAPGKERELVAAISDSGDNTYYADSVKGRFTISRDNAKKTVYLQMNSVKPEDTAVYYCNSQVDYWSNPWIYRKYDYWGQGTQVTVSS,high polyreactivity
8,QVQHVESRGGLVQARGSLRLSCAASGRIFSPYAMGWYRQAPGKERELVAAITWSGGSTYYADSVKGRFTISRDNAMNTVYLQMNSLKQEDTAVYYCAADFYRRYYAWEYYYWGQGTQVTVSS,high polyreactivity
9,QVQLVESGGGLVQAGGSLRLSCAASGITFYGNAMGWYRQAPGKERELVATISRSDGRTYYADSVKGRFTISRDNANNTVYLQMNSLKPEDTAVYYCAAYTTRPYWGQGTQVTVSS,high polyreactivity
10,QVQLVETGGGLVQAGGSLRLSCAASGSTFRYYAMGWYRQAPGTERELVAGISSNGGRTYYADSVKWRFTISRDNAKNTVYLQMNILKPEDTAVYYCNAGPYSRLYGDRDYDYWGQGTQVTVSS,high polyreactivity
11,QVQLVESGGGLVQAGGSLRLSCAASGFIFGINAMGWYRQAPGKERELVAAISKRTGSTYYADSVKGRFTISRDTAKNTVYLQMNSLKPEDTAVYYCNVVRYNGLDKYDYWGQGTQVTVSS,high polyreactivity
12,QDQHVESGGGLVQAGGSLRLSCAASGTIFSYYAMGWYRQAPGKERELVASISWKGTSTYYADSVKGRFTISRDNSKNTVYLQMNSLKPEDTAVYYCNVRFNYRGTYDYWGQGTQVTVSS,low polyreactivity
13,QVQLVESGGGLVQAGGSLRLSCAASGSTFSPYAMGWYRQAPGKDRELVAAISYDGASTYYADSVKGRFTISRDNAKNTVYLQMISLKPEDTAVYYCAADYFRSYEGTYWVVASYYYWGQGTQVTVSS,low polyreactivity
14,QVQLLESGVGLVQEGGSLRLSCPASGRIFGSKAMGWYRQAPGKERELVAAITRGGSTNYADSVEGRFTISRDNAKNTVYLQMNSLKPEYTAVYYCAVRWYRKYNYWGQGTLVTVSS,high polyreactivity
15,QVQLVESGGCIVQAGGSLRLSCAASGNIFYRNAMGWYRQAPGKERELVAAISSGGITYYADYVKGRFTISRDNAKNTVYLQMNSLKPDDTAVYYCAAYIRNCRATYEYWGPGTQVTVSS,high polyreactivity
16,QVQLVESSGGLVQAGGSLRLICAASGRIFSRYPMGWYRKAPGKERELVAAITYSGGNTYYADSVKGRFTISRDYAKNTVYLQMNSLKPEDTAVYYCNAYRPYYSYVSHEHYYWGQGTQVTVSS,high polyreactivity
